# Test results reported in a protein production outcome set (Wang et al. 2014).
# Assay: label from the status in PepcDB records
row,Sequence,protein production
1,MVESKRTWKEKVHVESQVEERLRKNLTLKSREATKLQKKALKTTKKEFKLSKKNYKQSLKKHKLTLKTGKEPLSINHLLDKKKFVEQKKRKKAQKIAYKRTKKVDETRVVNQVKRETKEGLKREATQKVRTTLTQEDTLNEAMTLYEKTQQAKFNMRTALKTGKTVKNLSVKTAKDTYGLGNRLFNFSRGRGFQRTPKDFTLKKQLMKQLRNRAMRFKAAKEAKKAEQGIGLIRSFFNGQKTLGKVAALILKNPISWVVLLVLFLVFLLSGVASSTQKPAIVQEEEDLTASWTYFTKLDAQHTDDNNLFYSNIDDVLFYMNYRYDDFKLLDMDSTGTKNFETILSELWTALNGKKPDYQLKTMQSLETDKKSSYFIEEEQAKHYQEIKKELGYQTLDDLLSFPVKTDALIVNKRYGYDKSKEKLTLYKGIDVLIEDNQPFHSPMNGQIVSVPDTETLVIEKEKVARLTIRGVNTLRLTKGMDVEEGTFLGNTKNSTVTFQYEKYKKETKDWFFVNPAFYFPRVTYTQTTLLGSAEFSPGASVEKRAQAVYDYLSKKGYTKEGISAILGNFSVESGINPKRAEGDYLNPPVGAHGNSWDEPSWLAMGGPQIYGGRFPNILHRGLGLGQWTDTADGGRRHTLLLDYAKGKNKKWYDLQLQLDFIFDGDAPGSRTAADNVARSKVAATIPELTTYYLTVWEGNPGDKLGERIQAAQNWFTFFSRSGTPIGGSGSEVFAQYKEKMQPLPTDRETKAGQGWPGNAYAPGNCTWYVFNRFAQLGKSIYPTMGNANQWVHNYSQTPGATLESAPKKGDAVIFTNGVAGSSTQYGHVAYVEHVNSDGSFVISEMNVSGEYSMNWRVLKKEAGEYFMRLN,failed
2,IPGSPFTAKITDDSRRCSQVKLGSAADFLLDISETDLSSLTASIKAPSGRDEPCLLKRLPNNHIGISFIPREVGEHLVSIKKNGNHVANSPVSIMVVQSEIGD,not failed
3,MISSLTTIISTGTNLGSGTDDDIYFGIHLNNGQKKEWLLDKETYNDFENGATDEYYLYINDMDFLPTMVDKVWVRKNSTGSFAGNWFFKALRIDANGNDVLSVSPNEWITDLEHHHHHH,not failed
4,MRTYLVLFSILLVFLAGCISTESKVEDTTTAVTFVSVTDFTGETSTINSPVERVVSNYGLIPPIIYLFGEGDKIVAGRGVMGADEFIDAVDPEFKTRSKDIKSDNVEEIKSLNPDVIFAPSWGSQQGQYPQLKSLGIPVVFIDIETASNYYKTIEMMGEVFQKEAYAQELIDYYNQSTNDVLKRTASISENEKPRVLFLVYDQRKNSYWTPGGEFYQNNLITMAGGKTVSSDLPTGKAQINVEQAASWNPDVIITSAHTMEYPSTKVKEDVLTDEGWKEINAVKSGNVYAMPFDGESWDTLGSKYVLGLYWTAKTLHPDMYTDVDILNLTSSEYERFFNVSIDEVTLVGDNIE,failed
5,MGHHHHHHSHMASRVRVTILFATETGKSEALAWDLGALFSCAFNPKVVCMDKYRLSCLEEERLLLVVTSTFGNGDCPGNGEKLKKSLFMLKELNNKFRYAVFGLGSSMYPRFCAFAHDIDQKLSHLGASQLTPMGEGDELSGQEDAFRSWAVQTFKAACETF,failed
6,MEPCSSDEFFQALNHAEQTFKKMENYLRHKQLCDVILVAGDRRIPAHRLVLSSVSDYFAAMFTNDVREARQEEIKMEGVEPNSLWSLIQYAYTGRLELKEDNIECLLSTACLLQLSQVVEACCKFLMKQLHPSNCLGIRSFADAQGCTDLHKVAHNYTMEHFMEVIRNQEFVLLPANEIAKLLASDDMNIPNEETILNALLTWVRHDLEQRRKDLSRLLAYIRLPLLAPQAPGLELSSPDLHSKDLAHSAISSTPK,failed
7,DKIGIERFLFPLGLYSYFRWMKQYERDRGLFLSLLLSLLYESTHNFLSVIFSSITGDNFVLQY,failed
8,ELHPRTGRLVSLSACGRTARRQQPGQEFNHGLVLSREPLRDGRVFTVRIDRKVNSWSGSIEIGVTALDPSVLDFPSSATGLKGGSWVVSGCSVLRDGRSVLEEYGQDLDQLGEGDRVGVERTVAGELRLWVNGRDCGVAATGLPPRVWAVVDLYGKCTQITVL,not failed
9,MNKKKFENLPKWNNFALFNFLAKDKENSLEVMEASRGFAVPGIVATNYETAEEAANVVKELQTTAPVISVGLGGGGDWQNWRDVLHIARLAPNSHINQPIETAGLTNDLLPETYTNALVRPTGKVGIVKLSSGDEITAEEAVDYCLSANIPSIKFMSIEGTKYLDELVYLTKVAAEKGIYGIEPAGGIGAENILEITTAIKTTGIPFFMPHIFGKTIDKATGRTKPEEIEKIFAALEGK,failed
10,MQATTATPHDIVFLFDCDNTLLDNDHVLADLRAHMMREFGAQNSARYWEIFETLRTELGYADYLGALQRYRLEQPRDTRLLLMSSFLIDYPFASRVYPGALNALRHLGARGPTVILSDGDVVFQPRKIARSGLWDEVEGRVLIYIHKELMLDQVMECYPARHYVMVDDKLRILAAMKKAWGARLTTVFPRQGHYAFDPKEISSHPPADVTVERIGDLVEMDAEWLLAEKR,not failed
11,MASHDHHHHHHDHEHDHEKSDGGEGKASWVGKDGKVYHSHDGLAPHSHEPIYSPGYFSRRAPPLHDRNFSERAFTVGIGGPVGTGKTALMLALCRFLRDKYSLAAVTNDIFTKEDGEFLVKNGALPEERIRAVETGGCPHAAIREDISINLGPLEELSNLFKADLLLCESGGDNLAANFSRELADYIIYIIDVSAGDKIPRKGGPGITQADLLVINKTDLAAAVGADLSVMERDSLRMRDGGPFVFAQVKHGLGVEEIVNHVMHSWEHATGKKRQ,not failed
12,MISDLPDDLESEILSRVPTKSLAKLQTMGNTRLVVWDSSTGETRWIKPRTRFRNDDYYGLGYVNSKSSGHSFKILRSCYYRNDQKQWVAEFEIYEFGSDTWRVLDYFTHDYGVFSSGGPLKRNTYWVAGDKEMGMFMLYFDFTRERFGHFPLPFKSFNREDTASLSVVREEKLSVLHQKILEFSNEMKIWLTNKIDETIELSWSNFVLTVDYDKFNLPSVVNVASFLLDEENKVAVCSDIDVDDENRTRVYVVGEDIYKQVYKDTTKASYFNCSTSCSIYW,failed
13,MLKRCLSPLTLVNQVALIVLLSTAIGLAGMAVSGWLVQGVQGSAHAINKAGSLRMQSYRLLAAVPLSEKDKPLIKEMEQTAFSAELTRAAERDGQLAQLQGLQDYWRNELIPALMRAQNRETVSADVSQFVAGLDQLVSGFDRTTEMRIETVVLVHRVMAVFMALLLVFTIIWLRARLLQPWRQLLAMASAVSHRDFTQRANISGRNEMAMLGTALNNMSAELAESYAVLEQRVQEKTAGLEHKNQILSFLWQANRRLHSRAPLCERLSPVLNGLQNLTLLRDIELRVYDTDDEENHQEFTCQPDMTCDDKGCQLCPRGVLPVGDRGTTLKWRLADSHTQYGILLATLPQGRHLSHDQQQLVDTLVEQLTATLALDRHQERQQQLIVMEERATIARELHDSIAQSLSCMKMQVSCLQMQGDALPESSRELLSQIRNELNASWAQLRELLTTFRLQLTEPGLRPALEASCEEYSAKFGFPVKLDYQLPPRLVPSHQAIHLLQIAREALSNALKHSQASEVVVTVAQNDNQVKLTVQDNGCGVPENAIRSNHYGMIIMRDRAQSLRGDCRVRRRESGGTEVVVTFIPEKTFTDVQGDTHE,failed
14,MKSFFSIFGDPSVTSVAIGKFDGMHLAHQRLFSYLDEGGAILTVDAQRGNLTPGEYKREFTPFPLYSIPLGKIKHLSGERFIYMLKKAFPNLTKVVVGYDFRFGKNRAFGVEELRGYFAGEVVVVPEVFHRGHSVHSEAIRELIAQGEMNLAGELLGRD,failed
15,MQAVLTAALPVFALILTGWLAARWRVLGPSATDALNRYVVYLSLPALLFRAMAQADLRQLADYWGFTAAVAGGIALTFGAAILACRRDGARLTDLSLEGLATSYGNAGYMGIPLCLALLGPASLAPAIITTLLTACVLFGVAIALIEFDQHRDRHWSATLLKVARALLRNPLLAAPLLGLACAAAGITLPAGLDNYAALLGASASPCALVTIGLFLAQSQPGGDRGTVGLMVDGKLLLHPAVTAVLAFAVFDMPPLWAWCAVLMAALPIGTGPFMLAQLYGRDARPSSRAILLSTVLSVPTITALVAWIGRQPLG,failed
16,MLTLHIGGIGIGEPLWFICNILVSFIFSYKLFNSILHNNNISYIFALIYTFSPAMAVLTYSTSWETVLSYAFSPLILYLLYLTFNNLELKGLSFDLILISIFMYVYYFDTDVIMWEGILVVSMLIYLTISHTNRKNCS,failed
17,MAPTFSPNPQNFTKKDKTKAERRKPEEGDDDHHHNASQLFLNPWQTRAARCRSLANGMLMTLHQLRGLLLSSTKLETRRKEVENLTHQGKMNLDIIKMGKFLRNPPKNGFAVYAQNKWRGVCLGRSFIYI,failed
18,MENLGDRLEVVAELSLAPGNITLTPDGRLFLSLHQFYQPEMQVAELTQDGLIPFPPQSGNAIITFDTVLGIKSDGNGIVWMLDNGNQSKSVPKLVAWDTLNNQLSRVIYLPPPITLSNSFVNDLAVDLIHNFVYISDPAPDDKAALIRVDLQTGLAARVLQGYPGIAPEDIDLVIDGVPVQIGQPDGTVIRPHLGVNGIVLDAENEWLYLSPMHSTSMYRIKSADLSNLQLTDAELGSKIERYSEKPICDGISIDKDHNIYVGDLAHSAIGVITSADRAYKLLVTDEKLSWTDSFNFGSDGYLYFDCNQLHHSAPLNAGENISAPPYYIFRLKPLAAGIVGR,not failed
19,MKLVFVTVNYNNIDETRKVLNCFSGLSHGENSVLYVVDNSDSKSECQSLDKENTNNKIKFLYPKENLGYLTGASFGVDFHYNNHGFDFDYLIILNNDIIFNVNEVLKSLEIFSQNNDAMMISPLVIDRGVNVNPYLTVRKSKRYMMFWNFILSNFFTFKVFHKINKYRALLSSKNNFSSTVQPFQKIYGSHGSVFILKNEYFLRGGSLRRLPFLYGEEIYIAEQVRKLGGDCVYYPSIKFEHKGSATLGNDTSRFKYLCIKQGHSFLYREFYS,failed
20,HVLYSNILNRDVTISIYLPESYNQLVKYNVILCFDGLDFLRFGRIQRTYESLIKEARIDDAIIVGFHYEDVDKRREEFHPQGSRSHLTIQSVGKEILPFIDSTFSTLKVGNARLLVGDSLAGSIALLTALTYPTIFSRVAMLSPHSDDKVLDKLNQCANKEQLTIWHVIGLDEKDFTLPTNGKRADFLTPNRELAEQIKKYNITYYYDEFEGGHQWKDWKPLLSDILLYFLRKNTDDQHYE,failed
21,MAVARHETGPFATVSALASQVHPVFMLPPLATSLFGGLLSGGFWPPVAVLHAGAMFFAVYTAHVKDGYVDFHVRGEDDDHPLTGAGCRMALVGAGVGFALCTAAIWLLVGPGAALLTLPTWIIGYTHAPQLDMNPVGATMGYPAGIALALLGGYYAQVTTLTPRAVGLAAVFLLLLTGIKIIDDEQDYDYDRSIQKRTVAVVLGHQRARQLALGLFGVALLGIVGLSVALPGIPPSAAAAALVFGAVAAIAQRGDPETATMLLIRGSYLLLAVLVTAVWFRPLA,failed
22,MPSETTEHKTGPAVTVVIVSYQSGPTLEPCLARLAAQTFRDFETILIDNFSTDGAPQAAAKAHPWVDFVEAGANLGFAAGNNLAARRAKGRWLVLLNPDAYAEPDWLEELMAGAARHPTVKSFASLQLSADRPGLLDGAGDNVTSAGIPFRGGYGRKPPAVLPEGEVFSACGAAMLIDRDLFLSVGGFDERYFCYCEDVDLGYRLRLYGEPTLLLPKAKVAHVGSASTGVRSDFSIFHGSRNRVWTFLKNTPGWLLPVTLPLHVAVTAGLLLLHWRRGDVAPAIRGIRAALKREDLDQVMADRRLIQARRKASPGAILRVMSIDPAAFIGRRFVIRKWRGA,failed
